Measured values published in paper PMC2173746.

Target: LSm7 (UniProt Q9UK45)
Assay: two-hybrid

Chain of UniProt Q9UK45 (Q9UK45 whole entry): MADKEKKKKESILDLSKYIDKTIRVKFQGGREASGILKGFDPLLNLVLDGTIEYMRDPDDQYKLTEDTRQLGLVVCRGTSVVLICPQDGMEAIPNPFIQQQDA

SART3/p110 with the CT10 domain deleted (from UniProt Q15020 1-950) (domain or fragment)
fold reduction of the two-hybrid interaction against full-length SART3/p110: 2 fold
